The term stoichiometry N denotes a count of units in the complex or per binding partner. A word on the Kd: it is the free concentration of one partner at which half of the binding sites on the other are occupied at equilibrium, for simple one-to-one binding.

In PMC12255303, “Regulation of a phage defence island by RptR, a novel repressor that controls restriction–modification systems in diverse bacteria” one finds stoichiometry N, binding result and Kd data, which are given here for 8 molecules.

The target of data set [1] is RptR (RMS-proximal transcriptional regulator) with an N-terminal His6 tag and 3C protease cleavage site (Escherichia coli O127:H6 E2348/69 (EPEC)). Put plainly: SEC; analytical SEC on Superdex 75 Increase 10/300 GL, calibrated with five low-MW standards; MW of His6-3C-RptR interpolated from elution volumes of the purification (SEC buffer 25 mM Tris-HCl pH 8, 200 mM KCl). (In gel filtration, larger molecules generally elute earlier.)

In data set [2] the target is T1, RptR (His6-3C-RptR) (Escherichia coli O127:H6 E2348/69 (EPEC), UniProt B7UP23 1-79).
T1 sequence: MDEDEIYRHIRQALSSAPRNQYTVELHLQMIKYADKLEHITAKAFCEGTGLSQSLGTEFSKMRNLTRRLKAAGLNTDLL
The data set is described as follows: EMSA; up to 1.2 uM RptR; EMSA: 25 mM Tris-HCl pH 8, 150 mM NaCl, 5 mM MgCl2, 0.05 uM dsDNA, 37 C 30 min then 4 C; 8% TBE-PAGE at 4 C, SYBR Gold. The note with it: protein: recombinant; tags: N-terminal His6 and 3C protease site (cleavage not described); chain copies: 2; blunt.

Data set [3] concerns the target T1, RptR (His6-3C-RptR). The data set is described as follows: EMSA; per RptR dimer; Hill coefficient 3.4; EMSA: 25 mM Tris-HCl pH 8, 150 mM NaCl, 5 mM MgCl2, 0.05 uM dsDNA, 37 C 30 min then 4 C; 8% TBE-PAGE at 4 C, SYBR Gold. The note with it: protein: recombinant; tags: N-terminal His6 and 3C protease site (cleavage not described); chain copies: 2; blunt. For orientation: In EMSA bound probe runs differently from free probe, usually more slowly.

The target in data set [4] is T1, RptR (His6-3C-RptR). The data set is described as follows: EMSA; same shift as DR1/s/3. The note with it: protein: recombinant; tags: N-terminal His6 and 3C protease site (cleavage not described); chain copies: 2; blunt.
The target of data set [5] is T1, RptR (His6-3C-RptR). The data set is described as follows: EMSA; single shift. The note with it: protein: recombinant; tags: N-terminal His6 and 3C protease site (cleavage not described); chain copies: 2; blunt.
Data set [6] deals with T1, RptR (His6-3C-RptR). Put plainly: EMSA; higher shift only. The note with it: protein: recombinant; tags: N-terminal His6 and 3C protease site (cleavage not described); chain copies: 2; blunt.
The target of data set [7] is T1, RptR (His6-3C-RptR). Put plainly: EMSA; binding abolished. The conditions noted are these: protein: recombinant; tags: N-terminal His6 and 3C protease site (cleavage not described); chain copies: 2; blunt.

Regarding “RptR (RMS-proximal transcriptional regulator) with an N-terminal His6 tag and 3C protease cleavage site (natural protein)”, the stoichiometry N in data set [1] was found to be 2.

B1: DRs/s/s (dsDNA)
DNA 1: AGTTCTTGAACCTGATACCACATTGAATCTATTGAATCTATTGAATCTACTTATCCATTA
DNA 2: TAATGGATAAGTAGATTCAATAGATTCAATAGATTCAATGTGGTATCAGGTTCAAGAACT
Regarding B1, in data set [2], the binding result was “no binding”.

B2: DR1/2/3 (WT) (dsDNA)
DNA 1: AGTTCTTGAACCTGATACCACATTTAGCTAATTTAGCTAATTTAGCTAACTTATCCATTA
DNA 2: TAATGGATAAGTTAGCTAAATTAGCTAAATTAGCTAAATGTGGTATCAGGTTCAAGAACT
On to B2, for which the Kd in data set [3] was determined as 185 nM.

B3: DR1/r/3 (dsDNA)
DNA 1: AGTTCTTGAACCTGATACCACATTTAGCTAAGAGAGAGAGTTTAGCTAACTTATCCATTA
DNA 2: TAATGGATAAGTTAGCTAAACTCTCTCTCTTAGCTAAATGTGGTATCAGGTTCAAGAACT
B3: the binding result in data set [4] is “binds”.

B4: DRs/2/3 (dsDNA)
DNA 1: AGTTCTTGAACCTGATACCACATTGAATCTATTTAGCTAATTTAGCTAACTTATCCATTA
DNA 2: TAATGGATAAGTTAGCTAAATTAGCTAAATAGATTCAATGTGGTATCAGGTTCAAGAACT
As to B4, the binding result in data set [5] is given as “binds”.

B5: DR1/s/3 (dsDNA)
DNA 1: AGTTCTTGAACCTGATACCACATTTAGCTAATTGAATCTATTTAGCTAACTTATCCATTA
DNA 2: TAATGGATAAGTTAGCTAAATAGATTCAATTAGCTAAATGTGGTATCAGGTTCAAGAACT
As for B5, the binding result in data set [6] was “binds”.

B6: DR1/2/3 C6G (labelled C5G in Fig S4) (dsDNA)
DNA 1: AGTTCTTGAACCTGATACCACATTTAGGTAATTTAGGTAATTTAGGTAACTTATCCATTA
DNA 2: TAATGGATAAGTTACCTAAATTACCTAAATTACCTAAATGTGGTATCAGGTTCAAGAACT
With B6, in data set [7], the binding result is recorded as “no binding”.

B7: DR1/2/s (WT control) (dsDNA)
DNA 1: AGTTCTTGAACCTGATACCACATTTAGCTAATTTAGCTAATTGAATCTACTTATCCATTA
DNA 2: TAATGGATAAGTAGATTCAATTAGCTAAATTAGCTAAATGTGGTATCAGGTTCAAGAACT
On to B7, for which the binding result in data set [5] is on record as “binds”.
